Test results taken from patent US7091311.

Molecular target: murine receptor (mouse) (UniProt Q08351)
Assay: cell-based or functional assay

murine receptor (mouse), sequence (Q08351 26-625): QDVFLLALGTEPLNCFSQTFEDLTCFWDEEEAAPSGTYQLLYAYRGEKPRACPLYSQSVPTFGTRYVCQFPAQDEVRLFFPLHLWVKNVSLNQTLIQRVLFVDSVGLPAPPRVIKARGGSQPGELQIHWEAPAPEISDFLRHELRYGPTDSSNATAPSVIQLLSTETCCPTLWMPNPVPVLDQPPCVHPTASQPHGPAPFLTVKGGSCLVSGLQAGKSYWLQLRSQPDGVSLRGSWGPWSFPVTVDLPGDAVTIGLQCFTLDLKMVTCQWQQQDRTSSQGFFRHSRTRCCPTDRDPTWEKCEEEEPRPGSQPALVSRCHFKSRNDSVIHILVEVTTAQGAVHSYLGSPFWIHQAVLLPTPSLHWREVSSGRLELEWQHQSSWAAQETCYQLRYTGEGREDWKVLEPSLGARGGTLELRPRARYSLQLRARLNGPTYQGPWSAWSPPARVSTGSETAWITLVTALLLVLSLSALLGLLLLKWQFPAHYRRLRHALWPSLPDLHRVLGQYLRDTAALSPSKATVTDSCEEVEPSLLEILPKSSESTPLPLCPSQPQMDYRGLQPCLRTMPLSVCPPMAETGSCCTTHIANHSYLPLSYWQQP

- colonies of 3-5 large cells, mouse marrow in methylcellulose, 1 nM TPO #1-1: 15 colonies
- colonies of 3-5 large cells, mouse marrow in methylcellulose, 1 nM TPO #1-2: 12 colonies
- colonies of 3-5 large cells, mouse marrow in methylcellulose, 1 nM TPO #2-1: 16 colonies
- colonies of 3-5 large cells, mouse marrow in methylcellulose, 1 nM TPO #2-2: 13 colonies
- colonies of 6-12 large cells, mouse marrow in methylcellulose, 1 nM TPO #1-1: 6 colonies
- colonies of 6-12 large cells, mouse marrow in methylcellulose, 1 nM TPO #1-2: 1 colonies
- colonies of 6-12 large cells, mouse marrow in methylcellulose, 1 nM TPO #2-1: 8 colonies
- colonies of 6-12 large cells, mouse marrow in methylcellulose, 1 nM TPO #2-2: 3 colonies
Substance: recombinant human TPO (from UniProt P40225 22-353) (ligand)
